Measured values from patent US20230287376.

Columns and labels:
[1] = system: SNAP-FCE-T7 RNAP fusion (Faustovirus / phage T7); details: 5'-triphosphate; soluble fusion
[2] = system: Faustovirus capping enzyme (FCE) (Faustovirus); details: 5'-triphosphate; soluble, 37 C, 30 min, SAM, GTP

ppp25mer FAM RNA was tested. Which activity [1] did it give?
The activity was > 95 % capping.

What about the activity [2] of the same substance?
Its activity is > 95 % capping.
